Experimental data reported in doi:10.1101/2025.05.23.655772.

Assays:
[1] = molecular target: catalytically inactive USP5 C335A (human) (UniProt P45974); assay: FRET or BRET
[2] = molecular target: ubiquitin-specific protease 5, wild type (human) (UniProt P45974); assay: thermal shift assay
Chain of ubiquitin-specific protease 5, wild type (human) (P45974 whole entry): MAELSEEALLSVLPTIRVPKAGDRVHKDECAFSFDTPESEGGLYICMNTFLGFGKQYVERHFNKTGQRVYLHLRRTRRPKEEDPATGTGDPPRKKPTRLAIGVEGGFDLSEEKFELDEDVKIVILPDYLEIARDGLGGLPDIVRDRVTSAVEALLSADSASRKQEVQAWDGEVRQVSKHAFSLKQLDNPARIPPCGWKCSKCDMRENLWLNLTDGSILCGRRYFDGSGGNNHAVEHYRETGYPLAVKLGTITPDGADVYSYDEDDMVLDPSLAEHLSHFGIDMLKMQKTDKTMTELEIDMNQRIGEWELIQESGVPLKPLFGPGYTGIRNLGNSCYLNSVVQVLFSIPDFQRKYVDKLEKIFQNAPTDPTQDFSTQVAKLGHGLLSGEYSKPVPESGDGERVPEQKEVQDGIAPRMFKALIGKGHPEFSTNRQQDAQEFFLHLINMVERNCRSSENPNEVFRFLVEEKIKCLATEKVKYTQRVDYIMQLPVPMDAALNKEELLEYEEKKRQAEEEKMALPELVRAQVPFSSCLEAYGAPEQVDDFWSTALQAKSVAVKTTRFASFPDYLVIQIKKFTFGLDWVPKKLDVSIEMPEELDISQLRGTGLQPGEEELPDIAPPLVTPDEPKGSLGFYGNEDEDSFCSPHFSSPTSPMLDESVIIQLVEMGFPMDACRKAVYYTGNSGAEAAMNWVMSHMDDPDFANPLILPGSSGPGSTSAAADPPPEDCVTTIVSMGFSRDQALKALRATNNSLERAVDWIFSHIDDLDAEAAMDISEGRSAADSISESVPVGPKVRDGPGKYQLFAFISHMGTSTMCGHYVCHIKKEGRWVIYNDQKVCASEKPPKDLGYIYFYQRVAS

Chain of catalytically inactive USP5 C335A (human) (P45974 whole entry C335A): as the sequence (P45974 whole entry) above, with C335A counted along it

Row | Substance | Kd [1] | Tm of the covalent complex [2]
1 | Cy5-labelled SDE2UBL (from UniProt Q6IQ49 1-77) (domain or fragment) | 1000 nM | 
2 | ISG15-PA, ISG15 propargylamide activity-based probe (from UniProt P05161 1-157) |  | 57.6 °C
